Results on 6 molecules are retold here after publication PMC8384837, “Expanding the binding specificity for RNA recognition by a PUF domain”.

By Kd is commonly meant the equilibrium constant for the complex coming apart.

In data set [1] the target is Pumilio-1 PUF domain wild type (human, UniProt Q14671 828-1168). As to the kind of experiment: EMSA; 10 mM HEPES pH 7.3, 50 mM NaCl, 2 mM DTT, 0.05% Tween 20, 0.1 mg/ml BSA, 0.1 mg/ml yeast tRNA; ~10 nM RNA, 0-1 uM protein, 1 h on ice; 1.2% agarose gel, 1x TBE, room temperature. As to conditions: protein: recombinant; tags: N-terminal GST (pGEX-6P-1) removed by HRV3C protease; label: 5' 32P. In general terms: Mobility shift assays separate free from complexed probe on a gel.

Data set [2] concerns the target T1, PUM1 PUF domain (Homo sapiens, UniProt Q14671 828-1176). In words: EMSA; 10 mM HEPES pH 7.3, 50 mM NaCl, 2 mM DTT, 0.05% Tween 20, 0.1 mg/mL BSA, 0.1 mg/mL tRNA; on ice; 10 nM RNA, 0-1 uM protein. As to conditions: tags: GST cleaved (HRV3C); label: 32P.
Data set [3] concerns the target T2, PUM1 PUF domain R3-THE R4-TFR (Homo sapiens, UniProt Q14671 828-1176, C935T;R936H;Q939E;N971T;H972F;Q975R). As to the kind of experiment: yeast three-hybrid, YBZ-1, SC-Leu-His + 0.5 mM 3-AT, 4 days. As to conditions: tags: N-Gal4 AD-HA kept; label: inside an RPR1-promoter hybrid RNA with tandem MS2 sites. The method, boiled down: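 Pumilio-1 PUF domain libraries, randomized at the three base-contacting residues of each repeat, were co-expressed with matching RNA elements from a centromeric plasmid in strain YBZ-1, which carries a LexA–MS2 coat fusion and a HIS3 reporter. Transformants grew for four days on SC-Leu (input) or on SC-Leu-His + 0.5 mM 3-AT (selection), and the repeat regions were PCR-amplified and Illumina-sequenced. The interaction score is the log change in variant frequency from input to selection. That logarithm is base 2, with a pseudocount of 1 where a variant was absent.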

In data set [4] the target is T1, PUM1 PUF domain. As to the kind of experiment: EMSA; 10 mM HEPES pH 7.3, 50 mM NaCl, 2 mM DTT, 0.05% Tween 20, 0.1 mg/mL BSA, 0.1 mg/mL tRNA; on ice; 10 nM RNA, 0-1 uM protein. To be noted: tags: GST cleaved (HRV3C); label: 32P. This is another data set of the same source.
The target in data set [5] is PUM1 PUF domain R1-QFR R2-VFQ (Homo sapiens, UniProt Q14671 828-1176, S863Q;R864F;Q867R;N899V;Y900F). Described as above. As to conditions: tags: GST cleaved (HRV3C); label: 32P.
Data set [6] has as its target T2, PUM1 PUF domain R3-THE R4-TFR. The data set is described as above. As to conditions: tags: GST cleaved (HRV3C); label: 32P.

A value given as a limit tells only on which side of the number the result lay.

T1 sequence (Q14671 828-1176): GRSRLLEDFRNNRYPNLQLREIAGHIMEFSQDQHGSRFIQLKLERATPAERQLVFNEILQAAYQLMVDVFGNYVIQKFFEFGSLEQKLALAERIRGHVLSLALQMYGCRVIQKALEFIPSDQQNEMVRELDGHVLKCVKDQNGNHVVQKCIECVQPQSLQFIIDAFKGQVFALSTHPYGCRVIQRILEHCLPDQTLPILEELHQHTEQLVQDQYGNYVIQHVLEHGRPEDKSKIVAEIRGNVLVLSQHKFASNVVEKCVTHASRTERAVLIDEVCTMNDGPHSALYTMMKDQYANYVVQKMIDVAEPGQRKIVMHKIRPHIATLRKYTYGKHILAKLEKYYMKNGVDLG
Pumilio-1 PUF domain wild type, sequence (Q14671 828-1168): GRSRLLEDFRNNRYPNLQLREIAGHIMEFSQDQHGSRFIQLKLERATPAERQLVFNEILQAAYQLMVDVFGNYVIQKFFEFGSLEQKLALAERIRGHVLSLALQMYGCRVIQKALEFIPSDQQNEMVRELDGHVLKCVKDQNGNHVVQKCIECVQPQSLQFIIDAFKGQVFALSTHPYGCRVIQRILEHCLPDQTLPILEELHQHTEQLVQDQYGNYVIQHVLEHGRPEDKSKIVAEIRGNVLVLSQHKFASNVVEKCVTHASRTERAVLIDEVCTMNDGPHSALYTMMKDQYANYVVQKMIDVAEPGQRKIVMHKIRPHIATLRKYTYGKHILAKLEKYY
T2 sequence (Q14671 828-1176 C935T/R936H/Q939E/N971T/H972F/Q975R): as the sequence (Q14671 828-1176) above, with C108T, R109H, Q112E, N144T, H145F, Q148R counted along it
PUM1 PUF domain R1-QFR R2-VFQ, sequence (Q14671 828-1176 S863Q/R864F/Q867R/N899V/Y900F): as the sequence (Q14671 828-1176) above, with S36Q, R37F, Q40R, N72V, Y73F counted along it

In the case of GGUAAGUGUAAAUAGUCUGCAU (ssRNA) [wild-type NRE RNA], the Kd in data set [1] was roughly 80 nM. In the data set with PUM1 PUF domain [2], GGUAAGUGUACGUAGUCUGCAU (ssRNA) gave a qualitative greater than 1000 nM. GGUAAGUGUAAAACGUCUGCAU (ssRNA) [UGUAAAAC] displayed a qualitative in the data set with PUM1 PUF domain [2] greater than 1000 nM.

B1: UGUACGUA (ssRNA)
RNA: GGCUAGAACUAGUGGAUCCCCCGGCGCCCGGCGGCUCGAGCCCGGGUAAGUGUACGUAGUCUGCAUGCCGCCGGGCGCCAUGCCUGCAGGUCGACUCUAGAAAACAUG
B1: in data set [3], the binding signal is 6.65 log2 enrichment (interaction score).

In the case of GGUAAGUGUAAAACGUCUGCAU (ssRNA) [QFR/VFQ target RNA], the binding result in data set [1] was “no binding”. GGUAAGUGUAAAUAGUCUGCAU (ssRNA) [UGUAAAUA]: in the data set with PUM1 PUF domain [4], the Kd is roughly 80 nM. The qualitative in data set [5] and in data set [6] was greater than 1000 nM throughout.
